Assay results as given in the DeepSol protein solubility set.

Assay: soluble on expression in E. coli; label from the status in PepcDB or PDB records

| Sequence | soluble on expression in E. coli |
| --- | --- |
| MKHICLYFQIHQPFRLKRYRFFDIGNDHYYYDDFRNEEIMRRITQKCYLPANLLLKEIIAEHPEFRVAFSISGTALEQLESYSPEALDTFRDLAETGCVEFLAETYAHSLSSLYDPEEFYNQTMIHSRRMEELFGVKPRVLRNTELIFSDNIATQVAEMGFQGMLTEGAKHILGWKSPNYLYKAGSAPELSLLLRNPRLSDAISAMFTRYDWNEYPLTADKMIRWIEETPEEEQIFNLFMNYEVLGSLHPQESGIFDFFRALPSLAKKSEGVKFATPSELIESSSPVAKFSSIYPISWVGEEKDTGTWLGNVLQQGACDKLEQWGERVRMIDDQRMLQDWLYLQSADHFYYMKTRGGDAGNFSPYETPYDAFNNYMNVLSDFLLRVEARYPSTIENEELKALLTTIRNQDKQIKKLEETIKRQKTKTT | not soluble |
| MGSDKIHHHHHHMNPVTHKAVLLLRPGKSPDDFTQQLRKTGRECFVHSFIEIEPLPVNKEQLTQIKQKHWDGIVIVSKNAAHYASRAGFSGVPSKYYAVGPGTASFACKHLNTAVSCPAFIHQSEGLLELSELQKLQQQNWLIIRGEGGRELLADAIRARGASVDYWEVYRRKQLTLNDPELIQQWISSVGTIVVTSAEQLGYFLSSMPNSAQSWLDSCQWIVPSHRLKGLIPFGQSDNIKVTGSAADAILMNALIADGKTHD | not soluble |
| MKRDRSDYEESMKHIDIVESLMMLSRSFVVKQIDVKQSTGSKTNHNNHFECKTCNRKFDSFQALGGHRASHKKPKLIVDQEQVKHRNKENDMHKCTICDQMFGTGQALGGHMRKHRTSMITEQSIVPSVVYSRPVFNRCSSSKEILDLNLTPLENDLVLIFGKNLVPQIDLKFVN | soluble |
| MGSDKIHHHHHHMDNKFKNIPKRHLPQKLPFDYTSIYTDPQIIKLTTRANIAIGTYEGFLESIINPMLLISPLLSQEAVLSSKLEGTHATLKDLLNYEAGNKVDIERDELHEIINYRKALFYALENISTINNIDSKGLPLSNRIIKEMHKILLDNVRGSSKNPGNFKRSQNYIGSVSSISYTPVPAEKTPEYMSNLEQYIHYDDLDLLVQSAIIHAQFEMIHPFEDGNGRIGRLLIPLFLYYQELLSYPTFYMSSYFERDRSLYISHLSNISKDNNWKDWFEYYLEGVILSAEESTKKAQDILSLYNIMKEQVIPKLNSVSGIQLLDFIFSAPIFKAEQVSEHLKISKRTTYTLLNKLIDEGYLSTDNAQRNRTYYCPQLLSIVQ | not soluble |
| MISANRPIINLDLDLLRTFVAVADLNTFAAAAAAVCRTQSAVSQQMQRLEQLVGKELFARHGRNKLLTEHGIQLLGYARKILRFNDEACSSLMFSNLQGVLTIGASDESADTILPFLLNRVSSVYPKLALDVRVKRNAYMAEMLESQEVDLMVTTHRPSAFKALNLRTSPTHWYCAAEYVLQKGEPIPLVLLDDPSPFRDMVLATLNKVDIPWRLAYVASTLPAVRAAVKAGLGVTARPVEMMSPDLRVLSGVDGLPPLPDTEYLLCYDPSSNNELAQVIYQAMESYHNPWQYSPMSAPEGDDSLLIERDIE | not soluble |
| MLSFTSRLKKDLFIKAQSLVPQHQLSRVVGKVAESENILIKAAVIQAFKTKYGIDLSIAEQADALKYKSFNEFFTRALKEGVRVVDSATGSIVSPADGAISQLGTIHDGEVFQAKGQSFSVEKLIGDPQLAQPFKQGQFATVYLSPRDYHRVHMPFTGTLTETLYIPGELFSVNQVTAENIPGLFARNERMVCLFDTELGRMAVVLVGAMIVAGIETVVTGKVKPTGRLELNHHDVTLQKGDELGRFYLGSTAIILFEKDKMVWDQQFKANSIVVMGEKLGQSTNPLEHHHHHH | not soluble |
| MGSDKIHHHHHHMKKKIVVLLPMKANSTRVKGKNFRDFCGKPLFRWILDSLLAVEDIDQIVINTDARDILAENGLVGTDRILIRDRKKEICGDEVSMNRVLADDVENVEADIYLMTHTTNPLLSSNTIKQAINQYNEELASASADSLFTVNKIQTRFYTAKCEPINHDPDNLIPTQDLEPWFEENSNLYLFNRESFAKTNARIGAKPSMMVSPAMECSDIDTPDDWDQAVVMTHYMLEKGFVKL | not soluble |
| MFRLSALYRYPIKSSAAESLERVALDALGVVGDRRWMAVDTETGRFFTQRLLPQLGRIQARWAAPEVLRLNAPGMSELSLEVPAADANLRGVTVWRDTLQAPDAGDAAADWLTRFLGRP | not soluble |
| MSLDQYGNIRAMGIHSLLYCERLFYLEEVEGILVADDRVYAGRTLHEELEPNEDFSGRIESFHYTSEKLEVSGKVDRIQKRDGDWIPYEHKRGRARIGTNGPEAWESDQCQVTVYALLLEEATGRNISEGKIRYHGSKDLVKIEIDEELRSKALKTIDRAKELSTSTNRPPVAQNENLCKNCSLAPVCLPEETRVITENEYEPIRLFPEKREGHHHHHH | soluble |
| MEGVQEVEIDAPLSGWHPAEGEDASFSQSINYPASSVNMADDQNISAQIRGKIKNYAAAGKVQQGRLVVNGASMPQRIESDGSFARPYIFTEGSNSVQVISPDGQSRQKMQFYSTPGTGTIRARLRLVLSWDTDNTDLDLHVVTPDGEHAWYGNTVLKNSGALDMDVTTGYGPEIFAMPAPVHGRYQVYINYYGGRSETELTTAQLTLITDEGSVNEKQETFIVPMRNAGELTLVKSFDWLEHHHHHH | soluble |
| MGSDKIHHHHHHMKHYQTIIIGAGAAGIGFGSAMQRLGLTNFLIIEKGHIGESFLRWPRTTQFITPSFTTNGFGFPDLNAVIPDTSPAFSFEKEHLSGVEYARYLQLVAAHYNLPIQNETSVLSIDKRDSLFVIKTSKGDFSADYLIMATGEFQNPNTIDIKGADLGMHYGQVDNFHIKSDNPFIIIGGNESACDALTHLVYLGNQVELYTDTFGRKESNPDPSISLSPLTKERLKHIQDHKKEYYSISEGKKAIEIKQIGKQYQVTFDDGSTAESFHKPILSTGFLNTCHLIDGIALFEYDKNQLPIVTEDDESTIVNNCFLIGPSLRQRDTIFCYIYKFRQRFVPVINHIAQREGIILDEDTLEFFKENQMYLDNLACCDVNCDC | not soluble |
| MSSRKGKASAHISYEDENDDLIDEINTFHNKDRKVEKGAIHKRKTFNRPEEVLNVEAEASDSSEDDGSDFDDDDVNDITDNKWGKKRKDFYGTGFVDKDWGGMREEEMEDAQLEEEDALTRQKQIDKSTAAIADLFDDDDEDEEEKEETVEVETVLEFNEENARTKNKKIVKTLEQFEARKRIFDLVVKPLENVIKQIPKCALRSQLVYVAQTYASYLMNTAFLLNLRAKQFSNEKLDDPLVDIHPVVESLKRLEKKITECEDFLHSNSDHLDELKKWAESEPENMEELISKVGDVQLTKKNFGAIMNNNLSTITSSDNTSIHPHFTPMDADEKRKASDKVAKNREYAERRGKKKAKTSKTKNRRKVHAIEKRVKSQIGNVRREMQKYSGETSGIRASTIKSTKLIA | not soluble |
| MAGRKKTTACKLFVLDTNVLLHDPTCLYRFEEHDVFIPIITLEELDTHKKGMSEVARNARQASRFLDDIISGNELNISEGIPLKHASRDAASGKLILQTQAINGTLPSSLPMGKADNQILGIVMALKSHYQGRAVILVSKDINMRIKARALGLEAEDYFNDKVLEDTDVL | not soluble |
| MTNVLYQHGTLGTLMAGLLEGTATINELLEHGNLGIATLTGSDGEVIFLDGKAYHANEHKEFIELKGDEKVPYASITNFKASKTFPLQQLSQDDVFAQIKNEMLSENLFSAVKIYGTFKHMHVRMMPAQQPPYTRLIDSARRQPEEKRQDIRGAIVGFFTPELFHGVGSAGFHIHFADDERAYGGHVLDFEVDDVVVEIQNFETFQQHFPVNNETFVKAKIDYKDVAEEIREAE | soluble |
| MGSDKIHHHHHHMPVLPVSSYKGSGPLANGHVQTMFPVLFRPMPVVEYHRQRLETPDGDFLDVDFSSAAAAAQSESIAVISHGLEGHSRRRYVQGMARVLNARGWDAAAWNFRGCSGQPNRLPRMYHSGDTQDLHTVVTACAQKGYRRILLVGVSMGGNQILKYLGEDPDRVDSRVCGAVVFSVPCDLVGAAQVLGRPQNSVYMRYFLRTLRQKIKAKHAMYPDTIQMDGLDSIRTFAEFDDRYTAPLHGFSGALDYWTKSSCRQFLSSVRVPALLVNALNDPFLSASCYPYREARQSGSLFFETTVTGGHVGFVQFNRQNIYWSEERLLSFMDEQGL | not soluble |
| MNVNIDSEQLFTEEKPKDYAQPEVLCHTFELLSNLHKLLPNRTVEVLHSYRSEEDKRKCEKPEFSGIEKILARHQLPKEINLSPKPSHVPSWKRKIINNISGNWKKCRLWQKSIYEPPMGTIIVRWTKKNLQPSEDLKSVIQRLSALGPIISVTPCGRESAVVVFRDAASACKAVSAFQTMSADSMFHCSWQHRFMSKNKTWSRRYPSKIHAEKKEKHP | not soluble |
